These results are taken from US20100021490A1 (INSTITUT NATIONAL DE LA RECHERCHE AGRONOMIQUE INRA, published 2010).

This assay deals with T1, N protein of measles virus (Edmonston B strain) (measles virus, Edmonston B strain, UniProt P0DXN6 1-525, limits assumed).
T1 construct: The construct is not described; also called measles virus N protein
T1 sequence: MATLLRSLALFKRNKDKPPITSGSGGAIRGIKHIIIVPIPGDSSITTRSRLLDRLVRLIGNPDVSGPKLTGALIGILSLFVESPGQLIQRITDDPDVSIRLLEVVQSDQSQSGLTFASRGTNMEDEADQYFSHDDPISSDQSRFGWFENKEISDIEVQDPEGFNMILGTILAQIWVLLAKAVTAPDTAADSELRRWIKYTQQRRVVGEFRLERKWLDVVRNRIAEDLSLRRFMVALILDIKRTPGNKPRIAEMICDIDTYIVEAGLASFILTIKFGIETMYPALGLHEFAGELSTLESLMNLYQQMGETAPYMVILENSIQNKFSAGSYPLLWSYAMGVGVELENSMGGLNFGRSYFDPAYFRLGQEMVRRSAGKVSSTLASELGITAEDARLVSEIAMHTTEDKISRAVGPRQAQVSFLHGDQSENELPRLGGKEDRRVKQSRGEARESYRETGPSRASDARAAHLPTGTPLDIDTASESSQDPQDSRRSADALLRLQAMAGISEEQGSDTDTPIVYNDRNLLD
Kind of assay: coexpression of the P fragment with N, co-purification.

B1: PΔ457N (C-terminal fragment of the measles virus P protein with the N-terminal portion deleted up to residue 456 inclusive) (other, not shown: a dimerising Fc or GST)
chain: GPASRSVIRSIIKSSRLEEDRKRYLMTLLDDIKGANDLAKFHQMLMKIIMK
notes: also called measles PΔ457N
For B1, the binding result is “no binding”.
